Experimental data taken from publication PMC3726683, “Autophagy Activation Clears ELAVL1/HuR-Mediated Accumulation of SQSTM1/p62 during Proteasomal Inhibition in Human Retinal Pigment Epithelial Cells”.

Columns and labels:
[1] = target: T1, ELAVL1/HuR (rHuR) (human, UniProt Q15717 1-326); experiment: AlphaScreen saturation binding; RNA titrated against 1 nM HuR; R2 0.97; Methods print 0.087±0.021 without unit; 25 mM HEPES pH 7.4, 100 mM NaCl, 0.1% BSA, room temperature, 30 min then 90 min with donor beads; settings: protein: recombinant; tags: C-terminal Myc-His (vector section) or MYC/DDK (assay section, TP301562); label: biotin (BITEG); single strand
[2] = target: T1, ELAVL1/HuR (rHuR); experiment: AlphaScreen saturation binding; RNA titrated against 1 nM HuR; R2 0.91; Methods print 0.207±0.024 without unit; 25 mM HEPES pH 7.4, 100 mM NaCl, 0.1% BSA, room temperature, 30 min then 90 min with donor beads; settings: protein: recombinant; tags: C-terminal Myc-His (vector section) or MYC/DDK (assay section, TP301562); label: biotin (BITEG); single strand

T1 sequence (Q15717 whole entry): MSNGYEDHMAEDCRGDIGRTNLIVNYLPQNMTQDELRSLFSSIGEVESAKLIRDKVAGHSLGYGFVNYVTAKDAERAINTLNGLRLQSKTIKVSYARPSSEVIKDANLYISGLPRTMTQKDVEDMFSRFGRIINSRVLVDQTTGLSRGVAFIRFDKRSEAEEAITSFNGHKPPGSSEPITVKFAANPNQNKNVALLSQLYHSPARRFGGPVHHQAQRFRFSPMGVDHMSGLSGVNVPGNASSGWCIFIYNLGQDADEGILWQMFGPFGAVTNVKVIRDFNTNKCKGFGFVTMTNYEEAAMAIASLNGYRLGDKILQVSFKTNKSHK

Row | Binder | Kd [1] [nM] | Kd [2] [nM]
1 | AUUAUUUAUUAUUUAUUUAUUAUUUA (ssRNA) [TNFalpha ARE probe] | 3.83 ± 0.69 | 
2 | GUUUUAAAUGACUCAUAGGUCCCUGACAUUUAGUUGAUU (ssRNA) [SQSTM1/p62 ARE probe] |  | 30.9 ± 13.2
